Here are results for eight compounds from paper PMC4329983 (Molecular imaging and biology : MIB : the official …, 2013).

The conditions of data set [1]: cited from earlier work.
For data set [2] the following is noted: cited from earlier work. The source holds these as a separate data set.
In data set [3] the test system is AR42J rat pancreatic cancer cells. Put plainly: Internalization studies of 68Ga-labeled conjugates in AR42J cells. Format: cell-based. The settings on record: 37 °C, 10-120 min, ~0.7 nM; reference 68Ga-DOTATOC; Fig. 2.
A short description of data set [4]: Biodistribution in AR42J tumor-bearing mice. Format: in vivo. The note with it: mouse, in vivo.
Data set [5] relates to AR42J tumor bearing athymic nude mice. Put plainly: Biodistribution in AR42J tumor-bearing mice. The format is in vivo.

As to “SST-14: physiological form of somatostatin, natural SSTR ligand”, in data set [1], the biological half-life is 2–4 min.

Turning to `O=C([O-])CN1CCN(CC(=O)[O-])CCN(CC(=O)O)CCN(CC(=O)[O-])CC1.[Ga+3]` [DOTA-Ga(III)], the “log K (thermodynamic stability of the Ga(III) complex)” value in data set [2] was 21.3.

Consider `C[C@@H](O)[C@@H]1NC(=O)[C@H](CCCCN)NC(=O)[C@@H](Cc2c[nH]c3ccccc23)NC(=O)[C@H](Cc2ccc(O)cc2)NC(=O)[C@@H](NC(=O)[C@@H](Cc2ccccc2)NC(=O)CCC(C(=O)O)N2CCN(C(CCC(=O)O)C(=O)O)CCN(C(CCC(=O)O)C(=O)O)CC2)CSSC[C@@H](C(=O)N[C@H](CO)[C@@H](C)O)NC1=O` (stereo partly drawn) [^68Ga-3, metal not drawn], for which the “Internalization in AR42J cells (time course)” value in data set [3] is listed as “negligible”. For the same compound, the tissue uptake (commonly the percentage of the injected dose found per gram of tissue) at 1 h in data set [4] (5 µCi, tumor uptake, 1 h p.i., AR42J xenograft, n=4) was determined as 2.95 ± 0.62 %ID/g. In addition, the tissue uptake at 2 h in data set [4] (5 µCi, tumor uptake, 2 h p.i., AR42J xenograft, n=4) worked out at 0.83 ± 0.1 %ID/g; in data set [4] (iv, 5 µCi, kidney uptake, 2 h p.i., n=4), 5.24 ± 1.03 %ID/g. Further, the tissue uptake at 0.5 h is 13.8 ± 2.22 %ID/g in data set [4] (iv, 5 µCi, kidney uptake, 30 min p.i., n=4) and 0.51 ± 0.05 %ID/g in data set [4] (iv, 5 µCi, liver uptake, 30 min p.i., n=4). The tumor/stomach ratio entry in data set [5] (1 h p.i., vs 68Ga-DOTATOC, 68Ga-NO2ATOC and 68Ga-2 (P<0.01), Fig. 5) is reported as “significantly higher”. This compound returned a tumor retention rate in data set [5] (2 h p.i.) of 19%. The “retention of the initial kidney uptake” value in data set [5] (2 h p.i. relative to 30 min p.i.) is “less than 52%”.

For `O=C([O-])CN1CCN(CC(=O)[O-])CCN(CC(=O)[O-])CC1.[Ga+3]` [NOTA-Ga(III)], the “log K (thermodynamic stability of the Ga(III) complex)” value in data set [2] is reported as 31.0.

In the case of “SST-28: physiological form of somatostatin, natural SSTR ligand”, in data set [1], the biological half-life is 2–4 min.

On to `C[C@@H](O)[C@@H]1NC(=O)[C@H](CCCCN)NC(=O)[C@@H](Cc2c[nH]c3ccccc23)NC(=O)[C@H](Cc2ccc(O)cc2)NC(=O)[C@@H](NC(=O)[C@@H](Cc2ccccc2)NC(=O)CN2CCN(CC(=O)O)CCN(CC(=O)O)CCN(CC(=O)O)CC2)CSSC[C@@H](C(=O)N[C@H](CO)[C@@H](C)O)NC1=O` [^68Ga-DOTATOC, metal not drawn, reference compound], for which the tissue uptake at 0.5 h in data set [4] (iv, kidney uptake) turned out to be 11.3 ± 2.07 %ID/g; in data set [4] (iv, liver uptake) it was 0.74 ± 0.18 %ID/g. Further, the tissue uptake at 2 h in data set [4] (iv, kidney uptake) is 7.33 ± 1.28 %ID/g; in data set [4] (iv, liver uptake), 4.37 ± 0.2 %ID/g. The compound further gave a tissue uptake at 1 h in data set [4] (tumor uptake) of 13.5 ± 6.28 %ID/g.

In data set [4] (iv, kidney uptake), `C[C@@H](O)[C@@H]1NC(=O)[C@H](CCCCN)NC(=O)[C@@H](Cc2c[nH]c3ccccc23)NC(=O)[C@H](Cc2ccc(O)cc2)NC(=O)[C@@H](NC(=O)[C@@H](Cc2ccccc2)NC(=O)CCC(C(=O)O)N2CCN(CC(=O)O)CCN(CC(=O)O)CC2)CSSC[C@@H](C(=O)N[C@H](CO)[C@@H](C)O)NC1=O` (stereo partly drawn) [^68Ga-1, metal not drawn] showed a tissue uptake at 0.5 h of 22.8 ± 2.22 %ID/g and a tissue uptake at 2 h of 9.79 ± 1.9 %ID/g. For the same compound, the tissue uptake at 0.5 h in data set [4] (iv, liver uptake) is 0.81 ± 0.09 %ID/g. Besides, in data set [4] (tumor uptake), the tissue uptake at 1 h was 22.3 ± 3.22 %ID/g and the tissue uptake at 2 h amounted to 12.8 ± 4.65 %ID/g. In data set [5] (mouse, in vivo), the tumor retention rate amounted to 55%, the tumor/kidney ratio result is listed as “significantly higher” and the tumor/liver ratio result is on record as “significantly higher”.

On to `C[C@@H](O)[C@@H]1NC(=O)[C@H](CCCCN)NC(=O)[C@@H](Cc2c[nH]c3ccccc23)NC(=O)[C@H](Cc2ccc(O)cc2)NC(=O)[C@@H](NC(=O)[C@@H](Cc2ccccc2)NC(=O)CCC(C(=O)O)N2CCN(CC(=O)O)CCN(C(CCC(=O)O)C(=O)O)CC2)CSSC[C@@H](C(=O)N[C@H](CO)[C@@H](C)O)NC1=O` (stereo partly drawn) [^68Ga-2, metal not drawn], for which, in data set [3], the “Internalization in AR42J cells (time course)” value is given as “significantly decreased”. In data set [4] (iv, kidney uptake), this compound returned a tissue uptake at 0.5 h of 18.2 ± 1.84 %ID/g and a tissue uptake at 2 h of 8.22 ± 2.29 %ID/g. In data set [4] (iv, liver uptake), this compound registered a tissue uptake at 0.5 h of 1.38 ± 0.11 %ID/g. In data set [4] (tumor uptake), this compound registered a tissue uptake at 1 h of 7.87 ± 0.41 %ID/g and a tissue uptake at 2 h of 1.78 ± 0.15 %ID/g. In addition, the tumor retention rate in data set [5] (mouse, in vivo) came to 24%.
